Assays:
[1] = target: CD3 on human T cells (Jurkat cells, primary human T cells) (human) (UniProt P07766); test: flow cytometry; 10 nM antibody on Jurkat cells (No Ab background 2075.61)
[2] = target: CD3 on human T cells (Jurkat cells, primary human T cells) (human) (UniProt P07766); test: flow cytometry; positive control scFv on human T cells, anti-His Alexa-647

Sequence of CD3 on human T cells (Jurkat cells, primary human T cells) (human) (P07766 23-207): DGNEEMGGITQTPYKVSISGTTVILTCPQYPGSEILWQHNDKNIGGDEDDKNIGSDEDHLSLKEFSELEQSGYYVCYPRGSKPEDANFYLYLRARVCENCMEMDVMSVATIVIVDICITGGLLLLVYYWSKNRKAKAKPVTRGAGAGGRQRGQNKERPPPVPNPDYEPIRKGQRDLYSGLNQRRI

Substance | MFI (arbitrary units) (arbitrary units) [1] | MFI (n = 2) [2]
UCHT1 (anti-CD3 clone, positive control) (antibody) | 89200 | 
CD3W36 (anti-CD3 antibody SP34 formatted as LH-scFv, positive control) |  | 99500
